Changes are numbered by the printed parent chain.
T1: Trop-2 on Trop-2 expressing tumor cells (human, UniProt P09758 27-323)
T1 construct: Endogenous Trop-2 of human tumour cell lines; also called Trop-2 positive tumor cells; A431 (Trop-2+++)
T1 sequence: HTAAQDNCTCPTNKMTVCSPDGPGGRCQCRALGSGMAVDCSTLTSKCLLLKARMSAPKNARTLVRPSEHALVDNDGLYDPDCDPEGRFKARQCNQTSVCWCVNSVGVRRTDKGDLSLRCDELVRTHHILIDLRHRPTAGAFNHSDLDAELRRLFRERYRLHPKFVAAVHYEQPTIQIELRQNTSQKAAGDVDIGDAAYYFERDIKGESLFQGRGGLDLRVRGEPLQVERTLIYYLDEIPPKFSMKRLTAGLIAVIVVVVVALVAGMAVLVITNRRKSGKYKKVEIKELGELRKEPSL

T2: cynomolgus monkey Trop-2-hFc (cynomolgus monkey, UniProt A0A2K5UE71 27-274)
T2 construct: also called cynoTrop-2; not shown: human Fc
T2 sequence: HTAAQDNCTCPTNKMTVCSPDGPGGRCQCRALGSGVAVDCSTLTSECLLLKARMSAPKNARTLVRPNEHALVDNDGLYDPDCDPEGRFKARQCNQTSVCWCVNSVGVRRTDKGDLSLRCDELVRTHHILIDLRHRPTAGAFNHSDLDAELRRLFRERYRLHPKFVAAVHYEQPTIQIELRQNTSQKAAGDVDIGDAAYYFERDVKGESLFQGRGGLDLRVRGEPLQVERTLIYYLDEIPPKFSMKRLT

T3: human Trop-2-hFc (human, UniProt P09758 27-274)
T3 construct: also called huTrop-2; human Trop-2 human Fc fusion protein; not shown: human Fc
T3 sequence: T2 sequence with V36M, E46K, N67S, V204I

T4: monovalent human Trop2-ECD antigen (human, UniProt P09758 27-274)
T4 construct: also called human Trop2-ECD (Extracellular Domain)
T4 sequence: T2 sequence with V36M, E46K, N67S, V204I

B1: chimeric mouse anti-Trop-2 6G11 antibody (human IgG1) (antibody, V domains shown)
VH: QVQLQQPGAELVRPGASVKLSCKASGYTFTSYWINWVKQRPGHGLEWIGNIYPSDSYSNYNQKFKDKATLTVDKSSSTAYMQVSSPTSEDSAVYYCTYGSSFDYWGQGTTVTVSS
VL: DILLTQSPAILSVSPGERVSFSCRASQTIGTSIHWYQQRTNGSPRLLIKYASESISGIPSRFSGSGSGTDFTLSINSVESEDIADYYCQQSNSWPFTFGSGTKLEIK
notes: Expressed in the human IgG1 subtype; also called mouse 6G11
B2: h6G11_WT antibody (human IgG1) (antibody, V domains shown)
VH: QVQLVQSGAEVKKPGASVKVSCKASGYTFTSYWINWVRQAPGQGLEWMGNIYPSDSYSNYNQKFKDRVTMTRDTSTSTVYMELSSLRSEDTAVYYCARGSSFDYWGQGTLVTVSS
VL: EIVLTQSPATLSLSPGERATLSCRASQTIGTSIHWYQQKPGQAPRLLIYYASESISGIPARFSGSGSGTDFTLTISSLEPEDFAVYYCQQSNSWPFTFGQGTKLEIK
notes: Human IgG1
B3: h6G11_FKG_SF antibody (human IgG1) (antibody, V domains shown)
VH: B2 VH with Y52F, Q62K, S101G
VL: B2 VL with Q89S, N92F
B4: chimeric 7E6 recombinant Fab fragment (Fab, V domains shown)
VH: QVQLKESGPGLVAPSQSLSITCTVSGFSLTSYGVHWVRQPPGKGLEWLGVIWTGGSTDYNSALMSRLSINKDNSKSQVFLKMNSLQTDDTAMYYCARDGDYDRYTMDYWGQGTSVTVSS
VL: DIVLTQSPASLAVSLGQRATISCRASKSVSTSGYSYMHWYQQKPGQPPKLLIYLASNLESGVPARFSGSGSGTDFTLNIHPVEEEDAATYYCQHSRELPYTFGGGTKLEIK
notes: Recombinant chimeric Fab; also called mouse7E6
B5: h7E6_SVG Fab (Fab, V domains shown)
VH: QVQLQESGPGLVKPSETLSLTCTVSGGSISSYGVHWIRQPPGKGLEWIGVIWTSGVTDYNSALMGRVTISVDTSKNQFSLKLSSVTAADTAVYYCARDGDYDRYTMDYWGQGTLVTVSS
VL: DIVMTQSPDSLAVSLGERATINCRASKSVSTSGYSYMHWYQQKPGQPPKLLIYLASNLESGVPDRFSGSGSGTDFTLTISSLQAEDVAVYYCQHSRELPYTFGQGTKLEIK
notes: also called DG (h7E6_SVG)
B6: h7E6-WT recombinant Fab fragment (Fab, V domains shown)
VH: B5 VH with S54G, V56S, G65S
VL: B5 VL
notes: Recombinant Fab
B7: h7E6_L recombinant Fab fragment (Fab, V domains shown)
VH: B5 VH with S54G, V56S, G65S
VL: B5 VL with G33L
notes: Recombinant Fab
B8: h7E6_SVGL recombinant Fab fragment (Fab, V domains shown)
VH: B5 VH
VL: B5 VL with G33L
notes: Recombinant Fab
B9: h7E6_WT antibody (human IgG1) (antibody, V domains shown)
VH: B5 VH with S54G, V56S, G65S
VL: B5 VL
notes: Human IgG1
B10: h7E6_N antibody (human IgG1) (antibody, V domains shown)
VH: B5 VH with S54G, V56S, G65S
VL: B5 VL with G33N
notes: Human IgG1
B11: h7E6_SVGL antibody (human IgG1) (antibody, V domains shown)
VH: B5 VH
VL: B5 VL with G33L
notes: Human IgG1
B12: h7E6_L antibody (human IgG1) (antibody, V domains shown)
VH: B5 VH with S54G, V56S, G65S
VL: B5 VL with G33L
notes: Human IgG1
B13: h7E6_SVG antibody (human IgG1) (antibody, V domains shown)
VH: B5 VH
VL: B5 VL
B14: h7E6_SVGN antibody (human IgG1) (antibody, V domains shown)
VH: B5 VH
VL: B5 VL with G33N
notes: Human IgG1
B15: h7E6_SVG19 Fab (Fab, V domains shown)
VH: B5 VH with G99S
VL: B5 VL
notes: also called DS (h7E6_SVG19)
B16: h7E6_SVG22 Fab (Fab, V domains shown)
VH: B5 VH with G99A
VL: B5 VL
notes: also called DA (h7E6_SVG22)
B17: h7E6_SVG20 Fab (Fab, V domains shown)
VH: B5 VH with G99K
VL: B5 VL
notes: also called DK (h7E6_SVG20)
B18: h7E6_SVG28 Fab (Fab, V domains shown)
VH: B5 VH with G99L
VL: B5 VL
notes: also called DL (h7E6_SVG28)
B19: h7E6_SVG30 Fab (Fab, V domains shown)
VH: B5 VH with G99E
VL: B5 VL
notes: also called DE (h7E6_SVG30)

Each binder was assayed against T1, Trop-2 on Trop-2 expressing tumor cells (assay: flow cytometry, A431 cells (Trop-2+++), 1 ug antibody per 300,000 cells).

| % positive | MFI | Binder |
| --- | --- | --- |
| 99.9% | 16200 | B1 |
| 99.9% | 19600 | B2 |
| 99.9% | 20300 | B3 |

The binders below were run against T2, cynomolgus monkey Trop-2-hFc (assay: SPR (Biacore T200), cynomolgus Trop-2-hFc captured by anti-human Fc, Fab as analyte).
Text: (§1) The human Trop-2-hFc or cynomolgus monkey Trop-2-hFc proteins were captured on the CM5 EDA chip 37 sensor surface coupled with anti-human Fc.

| Kd | koff | kon | Binder |
| --- | --- | --- | --- |
| 16.5 nM | – | – | B4 |
| 7 nM | 0.00189 s⁻¹ | 265000 M⁻¹ s⁻¹ | B5 |
| 44 nM | 0.00635 s⁻¹ | 144000 M⁻¹ s⁻¹ | B6 |
| 2.66 nM | 0.000335 s⁻¹ | 126000 M⁻¹ s⁻¹ | B7 |
| 0.57 nM | 7.42e-05 s⁻¹ | 130000 M⁻¹ s⁻¹ | B8 |

Each binder was assayed against T3, human Trop-2-hFc (assay: SPR (Biacore T200), human Trop-2-hFc captured by anti-human Fc, Fab as analyte).
Text: as §1

| Kd | koff | kon | Binder |
| --- | --- | --- | --- |
| 4.46 nM | 0.000435 s⁻¹ | 97600 M⁻¹ s⁻¹ | B5 |
| 21.1 nM | 0.00294 s⁻¹ | 139000 M⁻¹ s⁻¹ | B6 |
| 1.15 nM | 0.00015 s⁻¹ | 130000 M⁻¹ s⁻¹ | B7 |
| 0.25 nM | 3.27e-05 s⁻¹ | 131000 M⁻¹ s⁻¹ | B8 |

These binders were tested against T1, Trop-2 on Trop-2 expressing tumor cells (assay: flow cytometry, Colo205 cells (Trop-2+), 1 ug antibody per 300,000 cells).

| % positive | MFI | Binder |
| --- | --- | --- |
| 99% | 1760 | B9 |
| 100% | 2700 | B10 |
| 100% | 2420 | B11 |
| 100% | 2470 | B12 |
| 100% | 2420 | B13 |
| 100% | 2730 | B14 |

Each binder was assayed against T1, Trop-2 on Trop-2 expressing tumor cells (assay: flow cytometry, A431 cells (Trop-2+++), 0.5 ug antibody per 200,000 cells).
Experimental: For A431 cell staining, 200,000 cells were incubated with 0.5 ug antibody in 100 uL binding buffer (PBS (Phosphate Buffered Saline)+0.5% BSA (Bovine Serum Albumin)), followed by incubation with Dylight488-conjugated goat anti-human (Fab′)-2-specific secondary antibody from Jackson immunoresearch Laboratories (West Grove, Pa.).

| % positive | MFI | Binder |
| --- | --- | --- |
| 94.8% | 102000 | B9 |
| 98.6% | 149000 | B10 |
| 93.1% | 107000 | B11 |
| 95.1% | 110000 | B12 |
| 96.7% | 121000 | B13 |
| 98.1% | 128000 | B14 |

The binders below were run against T4, monovalent human Trop2-ECD antigen (assay: SPR (ProteOn XPR36), amine-coupled Fab, monovalent human Trop2-ECD as analyte, 25 C;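 also: GLC sensor chip, 3 min association then 15 min buffer dissociation, kinetics fit with a 1:1 Langmuir model, buffer of 10 mM sodium phosphate with 150 mM NaCl and 0.05% Tween-20 at pH 7.4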).
Experimental: Analysis of Fab/human Trop2-ECD (Extracellular Domain) interactions was performed using a Bio-Rad Proteon XPR36Surface Plasmon Resonance (SPR) biosensor (Bio-Rad, Hercules, Calif.) equipped with a GLC sensor chip. The assay temperature was 25° C., and the assay buffer was 10 mM Sodium Phosphate, 150 mM NaCl, 0.05% Tween-20, pH 7.4. […] In each analysis cycle, monovalent human Trop2-ECD antigen was flowed at 30 μL/min over the immobilized Fabs for 3 minutes followed by a buffer wash for 15 minutes to monitor dissociation of the Fab/Trop2 complex. The sensor surface was regenerated between analysis cycles, using three 18-second injections of a 2:1 mixture (by volume) of Pierce IgG Elution buffer:4 M NaCl (Pierce, Rockford, Ill.). […] The resulting data were fit to a 1:1 Langmuir binding model using the Proteon evaluation software.

| Kd | koff | kon | t1/2 | Binder |
| --- | --- | --- | --- | --- |
| 4.1 nM | 0.00069 s⁻¹ | 170000 M⁻¹ s⁻¹ | 1020 s | B5 |
| > 75 nM | 0.045 s⁻¹ | < 600000 M⁻¹ s⁻¹ | 15.6 s | B15 |
| > 75 nM | 0.013 s⁻¹ | < 180000 M⁻¹ s⁻¹ | 51.6 s | B16 |
| > 75 nM | 0.013 s⁻¹ | < 170000 M⁻¹ s⁻¹ | 52.8 s | B17 |
| > 75 nM | 0.016 s⁻¹ | < 210000 M⁻¹ s⁻¹ | 43.2 s | B18 |
| > 75 nM | 0.064 s⁻¹ | < 850000 M⁻¹ s⁻¹ | 10.8 s | B19 |

Molecular target: T1, Trop-2 on Trop-2 expressing tumor cells
Assay: flow cytometry, Colo205 cells (Trop-2+), 1 ug antibody per 300,000 cells
Remark: another data set of the same source

| % positive | MFI | Binder |
| --- | --- | --- |
| 100% | 1670 | B1 |
| 99% | 1720 | B2 |
| 100% | 2060 | B3 |
